Data on one molecule can be found in patent US7052704B2, “Methods and compositions for lipidization of hydrophilic molecules” (University of Southern California, priority 1995, dated 2006).

The assay deals with C3H 10T1/2(clone 8) cells. Put plainly: In vitro transformation assay (MCA-induced). Type of assay: cell-based. Particulars: MCA 1 μg/ml 24 hr, then conjugates 1.0 μg/ml for first three weeks. On the procedure:
Transformation assays were carried out using C3H 10T1/2(clone 8) cells according to the published recommendations [Reznikoff, C. A. et al. (1973) Cancer. Res. 33, 3239–3249; Reznikoff, C. A. et al. (1973) Cancer. Res. 33, 3231–3238]. Stock cultures of mycoplasma-free cells were maintained by passing 50,000 cells per 75 cm^2 flask every seven days. Using this schedule, the cells were always passed approximately 2 days before reaching confluence. The stock culture was grown in Eagle's basal medium supplemented with 10% FBS, penicillin (100 units), and streptomycin (100 μg) and used for the transformation assays at passages of 9 to 14. The cells were passed by treating the stock cells with trypsin (0.1%) in PBS for 5 min and quenching the trypsin with 5 ml of the medium. This procedure was adapted to minimize spontaneous transformation in the stock cultures and maximize the plating efficiency in the petri dishes. The FBS stock used in the cultures was pre-screened to ensure that the serum was able to support the expression and the growth of the transformed cells.
For the transformation assays, C3H 10T1/2 cells (1000/dish) were seeded into 60 mm petri dishes and allowed to grow in a humidified 5% CO2 atmosphere in Eagle's basal medium, supplemented with 10% FBS, penicillin (100 units), and streptomycin (100 μg), for 24 hr. Subsequently, the cells were initiated by treatment with 25 μl of the 3-methylcholanthrene (MCA) in acetone stock solution ([…]) to a final concentration of 1 μg/ml of MCA (5 μg/5 ml). The cells were allowed to grow in the presence of the carcinogen or solvent for 24 hr, and the medium in each dish was then replaced with fresh medium containing no carcinogen or solvent. The medium in the dishes was replaced twice per week for the first two weeks of the assay, and thereafter once a week for the remainder four weeks of the assay. In the experiments designed to determine the transformation inhibitory activity of the conjugates, the cells were maintained in the medium containing the conjugates (1 μg/ml) for the first three weeks of the assay; thereafter, the cells were maintained in medium containing no added conjugates.
Six weeks after the carcinogen treatment, the cells were inspected under a microscope for adherence to the culture dishes and were washed with PBS and then fixed in 100% methanol. The fixed monolayers were then stained with Giemsa stain. 20 dishes per group were treated in each experiment. In addition to the test groups, all the transformation assays contained at least three other groups: negative control (not treated with carcinogen or solvent), acetone control (treated with 25 μl of acetone), and positive control [treated with MCA (1 μg/ml) in 25 μl of acetone]. The transformed foci (>3 mm in diameter) in the plates were studied under a microscope and classified according to published guidelines as types I, II, or III [Landolph, J. R. (1985) Transfomatin assay of established cell lines: Mechanism and Application (ed. Kakunaga, T., and Yamasaki, H.) IARC Scientific Publications, Lyon, France pp. 185–201]. Briefly, type III foci were dense, multilayered, basophilic, areas of cell growth which stained to a deep blue color with Giemsa and had rough criss-crossed edges. Type II foci were also dense, multilayered, areas of cell growth, but were stained to a purple color with Giemsa and had smoother, more defined edges compared to Type III foci. Type I foci were not scored in the assay.
BBI, either as the free protein or in conjugated form to palmitic or oleic acid, was added to the cultures at 1.0 μg/ml for the first three weeks of the transformation assay period starting immediately after the MCA treatment. MCA-treated cells were exposed to 3-methylcholanthrene, dissolved in 25 /μl of acetone, at a concentration of 1 μg/ml for 24 hr. Acetone-treated cells were exposed to 25 μl of acetone for 24 hr only. […]

B1: BBI: hydrophilic protein which has low uptake into cells and is not orally bioavailable; used for chemoprevention (protein, UniProt P01055 40-110, looked up)
Bowman-Birk type proteinase …: DDESSKPCCDQCACTKSNPPQCRCSDMRLNSCHSACKSCICALSYPAQCFCVDITDFCYEPCKPSEDDKEN
In the case of B1, the “transformed foci in the dishes scored” value was “no transformed foci”. For the same molecule, for the setting “scored at six weeks”, the “Fraction of dishes containing transformed foci” value was 0 and the “No. of dishes with transformed foci/No. of dishes” value is recorded as 0/20.
